Results on one molecule are retold here after patent publication US20220118053A1 (ASCENDIS PHARMA GROWTH DISORDERS A S, published 2022).

Bridges are numbered along the chain shown (N, C = ends). Where no end group is shown, it is not given here.

The test deals with T1, NPR-B receptor (UniProt P20594 23-1047, limits assumed).
T1 sequence (looked up): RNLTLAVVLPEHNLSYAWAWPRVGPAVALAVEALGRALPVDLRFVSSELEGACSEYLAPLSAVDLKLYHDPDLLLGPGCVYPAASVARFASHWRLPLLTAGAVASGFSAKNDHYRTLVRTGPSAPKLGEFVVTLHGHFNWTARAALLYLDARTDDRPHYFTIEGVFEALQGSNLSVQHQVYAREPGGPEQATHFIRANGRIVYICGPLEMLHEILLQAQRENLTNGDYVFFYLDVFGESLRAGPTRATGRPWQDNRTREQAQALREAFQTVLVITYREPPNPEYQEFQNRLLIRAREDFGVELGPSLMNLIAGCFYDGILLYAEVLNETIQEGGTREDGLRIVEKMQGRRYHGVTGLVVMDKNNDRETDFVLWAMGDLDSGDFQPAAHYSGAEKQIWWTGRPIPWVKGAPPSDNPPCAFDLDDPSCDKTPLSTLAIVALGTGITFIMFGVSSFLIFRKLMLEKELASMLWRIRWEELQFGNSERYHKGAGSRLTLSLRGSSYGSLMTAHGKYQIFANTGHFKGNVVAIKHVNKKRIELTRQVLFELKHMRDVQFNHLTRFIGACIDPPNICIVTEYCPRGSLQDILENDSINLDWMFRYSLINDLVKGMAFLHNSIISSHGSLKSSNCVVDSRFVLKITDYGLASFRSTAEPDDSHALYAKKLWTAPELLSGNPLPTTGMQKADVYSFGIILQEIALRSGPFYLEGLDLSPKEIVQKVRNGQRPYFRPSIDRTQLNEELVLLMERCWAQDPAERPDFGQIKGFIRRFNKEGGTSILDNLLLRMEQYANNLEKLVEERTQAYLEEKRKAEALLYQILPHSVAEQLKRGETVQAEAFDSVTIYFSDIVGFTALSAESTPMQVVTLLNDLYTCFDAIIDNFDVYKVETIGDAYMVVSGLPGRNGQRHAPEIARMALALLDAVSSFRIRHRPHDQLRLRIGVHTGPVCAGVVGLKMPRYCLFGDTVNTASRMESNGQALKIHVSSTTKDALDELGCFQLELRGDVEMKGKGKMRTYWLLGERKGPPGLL
Briefly: cell-based or functional assay.

On to LQEHPNARKYKGANKKGLSKGCFGLKLDRIGSMSGLGC (disulfide 22-38) [CNP-38], for which the “Biopotency (%), F13, T0; cGMP stimulation in NPR-B overexpressing Hek293 cells, relative to CNP-38 reference standard” value was found to be 93%; the “Biopotency (%), F13, T3M, 5° C.; cGMP stimulation in NPR-B overexpressing Hek293 cells, relative to CNP-38 reference standard” value was 107%; the “Biopotency (%), F13, T3M, 25° C.; cGMP stimulation in NPR-B overexpressing Hek293 cells, relative to CNP-38 reference standard” value turned out to be 91%; the “Biopotency (%), F13, T3M, 30° C.; cGMP stimulation in NPR-B overexpressing Hek293 cells, relative to CNP-38 reference standard” value is 96%. Also, the “Biopotency (%), F13, T3M, 40° C.; cGMP stimulation in NPR-B overexpressing Hek293 cells, relative to CNP-38 reference standard” value was 94%; the “Biopotency (%), F13, T6M 25° C.; cGMP stimulation in NPR-B overexpressing Hek293 cells, relative to CNP-38 reference standard” value was determined as 106%; the “Biopotency (%), F13, T6M, 5° C.; cGMP stimulation in NPR-B overexpressing Hek293 cells, relative to CNP-38 reference standard” value was found to be 95%; the “Biopotency (%), F13, T6M, 30° C.; cGMP stimulation in NPR-B overexpressing Hek293 cells, relative to CNP-38 reference standard” value turned out to be 89%.
